According to the DeepSol protein solubility set:

Assay: soluble on expression in E. coli; label from the status in PepcDB or PDB records
With “GPGSMPPKSAVKKVDSAAATGKRKKLSFAESTVKAAAAAIQTTHVNVPVRAAAKHAPLAAAPRKKGQNAKKTTATTSSAARQRAATDLKRSGIVKAKRAEEEVAAPPVPSDEENSRDDEDDMLNGGAAVDSDTDDLSDMADRTPSDDELGAGKQASSSASRQRDSNGTVEPYRAVRLSFLPPEFQEPQLYKFLNQFGATVLNCFCVRSKRTHRSRGIAYVEFDKESAIPLVVEECNGMVLGGKAVRARAVTMRRRMPSRQMVDRRRALAYAYKTRGAPLKQHDVRRKGPVGLLIKAVRTEKNNNNYLKSLGIDFQTDFFQSQLATLPPVLLKKKRSRSKKSEKGTVATAGMAKAVVKTTDIATVASKSSPKRATRKAPATKTK” the “soluble on expression in E. coli” value was “soluble”. With “GPGSMPRYYTPHEVRAHCFEDDAYVSINGKVLDITPLIQMYQGTRYASLLQPLILAAGTDMTHLLDKKTMDFKTCIDPETGFRTYAQPFGRFAHTPTVLPDSSIDLSYEVPWWQDERYVIGQLTRKTRKIRIVNTLNGHEHTLEVCSEETLREIVMTRYLSHNAHALSYTWRRLDSEPRDLDMDKTLDENGVLDESEEFESLGLNADYYIPALHLYYDDDLTEA” the “soluble on expression in E. coli” value was “soluble”. With “GPGSMPVEQLEEENKTLRTKVRVLEEELKHRNAECVRLRDELQLLSGVMRENDSQRQLIDTLREELEFSRKSHAEAVEALNVGEKQRRNEEHRQRMARVQLQLSTSGMDVKTGTSSQAGGAVLPVVTGGVVPTSSGVEIICKSSNISSLGFAPVQRPPDFAGSAYGQFYRGVANSADLVEEEDEVSRLMAMAKDGAMLDIKHAEVTDGEENELLERYKALKLWKPN” the “soluble on expression in E. coli” value was “not soluble”. In the case of “GPGSMQEERERAERSKLLREEHDFWVEFRDRERAERLKYMTEQEIVELLQREADEATRESNRADQLHQRAMEDALRRRHITADVQRGGEDTVLARRKGEVQVDGIRLAAERETSVMVGAMTVAERTRRAGVERQQREEDLTAKCQQLMTELEEARASATRAQRYQKRAEDDLTREQENTRKEQSDAAACKETNDKLLKELAEVRQQLTASEAERKKAEAAKVQAAREVAQKEKELTCLRKRDDELAAQQASQKAAAEDEKQRAFTFQEELKTYRDALEKEQAARNRAETELAALREQAKTLEAKVAAASAPDPKQVADNMRKLKAVADDARKAQADLVKERQARESAEAAAVEARDALAKEQAVREKVEKEAQRALAASSVSVLHVQKAESDRKKLAEAEKKLEEMRRARNRDEVEKAALKREMEKVKRDLEGEASARAQFEQLASQAVSADDRVPQREVDQLRKALQISQEQCNAARRDTVACQQNAAREIALLKAWCERLQQQHRMQQQVLQSDEEFTPRTATPTPHCRTPRSVRKRIPQDLVADQRQAEEKAASDQRIRELEAHVTRLQVDLGRSKDQERRAIAGAEQARKALEASTATSMPDSGKASPGPSERGIAKEQEAKERAMVQRLNALERECAEAQKKYDDLVVAHRQSEAARCEAELQVAAQRAQIEQRQREEPQSYTSALGNYETSRLEPISATAGESTSALEERIKELERHLAEERAARQAAERRAEESQKLCAAPGTDAMSAAKRAEANVSSSGAGAKGKPQKVKSACC”, the “soluble on expression in E. coli” value is reported as “not soluble”. In the case of “GPGSMRAEETAPSIPPPPTISPQKTSHRTAVVPSDPSNRPTQSLRSTKELMRQRRSTVVPRITDIFALGQLHEKGERVGSRNVCPPTWKQRMSLAGQFTTFCRTHEQPINEKSCAVILMAILDVAPSTRPQHARMLRSVLRMDRTPLDMMILGLKETAARSETKQQRQQSRAIYRRCACASSGRNSMAPPMRTTVNENETARTLRRSCFSATK”, the “soluble on expression in E. coli” value is reported as “soluble”. In the case of “GPGSMRKKSVQETDEVPNERLPHILSSSDDPTEVNKALVVLLRRLRAGAGEPISLSPATLSQLLRILVGRTDDAWLEVRKKIAFVFSELLSKDNADVLADALLYGRLHTTTSSEARASRIDFGGVDENSAPDPFTSLKKMKEILGKLAEAHGTVERCVPAADVFRTFLRLPALLEVIMSPEPLFDVEDNDGSAPAHHATKKRCFNDTCIGILCRSAQAYTTALCTETWRSLSTALCTNKALSAPLLLCYFNEFVGMFLGCLEGDNFVAKLHALELIDAILEDAAFLKARPKLAESPALLCALLPLTNSRSQHIRFLTFDAIKVFIAKGNKPAPIRYILYINRETLARYVEDYSPNEATIGKVLSAEKEKILRSLLSLEPLSHEEEVLLNASA”, the “soluble on expression in E. coli” value is reported as “not soluble”. With “GPGSMRRANEVAREMWAPSTWERRMSLAGQFTTFCCTHERPIKEESCAAFLMAIEVAPSTRPQYARMLRSMLEMDRTPLDMMIVGLQKKIAARSETKQARLLTKEEMNQLIRSRTDWKERVVLRLAWITASCWSEIEALIPNNFTLERDGALILDWSLAPKTARADPHRASRFVRIRGLDAFDTIKLCRTLQHSEKLTNITNAQVERALVPWNATAHSIKRGALRRAAQIVEAYNFNPHVISQLAMHVDPFDLPQNTVRYLGKHTTLLTQVSSLVAFL” the “soluble on expression in E. coli” value was “not soluble”. For “GPGSMRSAVNLGGAPRVPSQRLPAFEGVSPRIVARQVPAHRGEYVSLVLRPTSLNAQRNSLVASCVVTDESVEVMGLPADAEVAQVNEFVCYINPSSGELEYYQHGTYNDEYDVDVYRKLLELCPKFPALF”, the “soluble on expression in E. coli” value was “not soluble”. For “GPGSMSAIPPPHYVRLRRYNLSIFVHCDVHNDTVQAIKERYGKLTGHIFYNARLYLGQQSLDDFLTLYGCGIEAEGAELVVVHSKGAKGDGTSEHIWETVEEAMAAPQGDSLNSPEVTAEGTAKLDSMEAAATSNEVGNQQQQQAADARGGTGAELNVGFVGV”, the “soluble on expression in E. coli” value was “soluble”. With “GPGSMSDVDDLIEELFPKKEGGRAPPEGKGGAACEPPASQSNWDDTDEANSEAETTTRNRGTSVSLEAAASTTANVGDGRGEDFDDSDESVEETVMGGRHTVPFPPTPGNMSMACNSKCFVTNVGSGELRHPSVAQLLLTGEGKYDKCSSNEQLLLRKGAFHALKADAGNGCTDKTADEDGRKGGCPFILCRKCNYTVIRLQDAEWDDEEGKMDLYLTVRNFYPDWSRLASSLPVGQMRRGEQNTVLKTCPDSAAYCCQCSWLTVKCAQEVIDTRVTDHTKFVGKELTCCFATQLPLISGEKRRPPLWVCGGHVPKH” the “soluble on expression in E. coli” value was “soluble”. For “GPGSMSDWETIAKESEKVLVKPDIKGCHEILMKAYEGGNHHPEILWRLGRSYYEMANESTDPAVREPYLKEGMELCKKSVEADPHNFASHKWLGILISDQKVGNKEKIANAYIIRDHFLKAVELNPNDATSLHCMGNWCFKILQIGWLERKAAALILGEPPSSTYEECLGYLLRSAEAGNTIHNSTMIGDVYAQQSMHDEARKWYQKAIDMPAYTELQKRNHDAAVAKIKKL”, the “soluble on expression in E. coli” value was “soluble”. In the case of “GPGSMSEPHVPTAAAQQPSAEATANAALTADSTVHTSPQAPPPPAASGASTVSANVAEVKSVTATLSDVADSTEPLLVGKVVSSEIAQARSQPCTSDLNTAQSGAGAPVDANVGEQDRCSPPAKSTSSSSSSHSGEESSDEAADFETKELMFAFGRYVGQVNPQTGLRHGHGCQYYNNGNVYTGEWRDGAPDGFGEKRYRNGDVYRGNWRQGKRSGRGVYLFVQGDTYEGMYADDKPEGQGTYATLKGDRYTGQWKAGQRHGTGRETLANGQVFVGNWRYGKKQGRGKLYLPGSEKCIYGIWNNDRFFRELTANEMGADGAEDVVDELGTQRRPSALSVALPGAKAPPPSASLADRVRMGVTALENRMESLGKALERVITGGDGDESAHVPRAAAMGAASSTAGDVAVSEECTEPPAQGFVVNSHQANDEDGEQG”, the “soluble on expression in E. coli” value is reported as “soluble”. For “GPGSMSGGLPRQFVLKVERHVPVNKGMGLAYPTVPGGSDVADADATPHAGAGERHQSNEAGGDMASGTLKDEAGSIHLSHEKETQTEEVPLPTCEANACDVDGTHCLSVDALDMAVRSNGAALRQMRSSSHLTAAFHTSASDDYGDSISPNPSDRQSFIGSLRVSYVELMSGESIPVYFPPSLGTSGGVEGKTMTLSEDLGCENQ”, the “soluble on expression in E. coli” value was “not soluble”. For “GPGSMSGSTQRAEQQRRIQQLHERLELYNIADRHTDPTSNSAGGVGFASAGGLETGGGDKAPTTKPSRAAPMSGSPNLKPTSAPTSNAFFFTSSLPRRAADAGAPSSTLGLQQGNGSGSRATAAPSATEIAEVSRASPTPQQQPQVQMPPPAPAPQLARNLAQEFFGSAASPTHASPTRAASRSSAMTSGAAASPVAPERPSVTAAYPESATEATAAATAAKAGSPPLAANVFDYYEDFKSDGSEGDEYEVEEVEECMEDEEDYVGDGEDTDEHARGKASLTLEDVLRRLHRACSGSVDHAAAASPLEQAMAAASASSPLARDPSLATATPAAAAATRVTLTAAAASPIGTTYPFLQQATEVYRQRHLYKATQEHQQHHSPFNTGYAWSTDEETSVTDTSTSEPTEGLGDASESRSASVSSSASAASKGHLTAANAAAAVQNSGLLAAALQPLADTAIATPTASDRASAEKVLPSSALCFDQLETAYRRLLILQQGAKYVSELAGPECFPRPLPRQEEARALAEQRDMVVKRDTEMRAAPPAGSSLEDLRQRESAAIERTLGLLREKFDAAMKSLKPVADREAAIEGKRRTLKQRELDIAKQREARLIVEREVAAAEKRLMERSEQLRKREEDYSARLQQHDHQQKAAQEQIGEVEQLSKQVSSWLAILEERDRRLARKEKRLQRVQADLLKRTEDIIVWKRATQRIKQIPPPPSPPRIS”, the “soluble on expression in E. coli” value was “not soluble”. In the case of “GPGSMSRYSTGIENIPSLFDLASALTGFIADFTQVVFGNTQTSFTAAALEETDRGNYDPVARSWEGTGGLNYRVPLYPIPSERHTRERTRNIKILMDNCRRICVEDELPSTKEELQFWTAYRFMKYQMYLTPTCVIMPPLYVMWRMFHDRIPRPFRGRTIPVTLSLALAEQWADATYPGHQFLSTALRAKTPMGDAARAEWLRLQPIDIPYYIYAAYQFQHFFGNVPKEILFGGDIAGYCS”, the “soluble on expression in E. coli” value is reported as “not soluble”. For “GPGSMSVEASRPTRSQDPLPAAVIREFLEMHQQCNDQSLGQGESPTGTEKDGTRAAEARVVSAPLRVEVETTHGYVYEGRLVAMDEFYNVTLTEATKRRERLCDVERSLLTMHGFPAPAASPSTRREYVGSVLVRSGNLLMIRFPQGEGNATRVLHGAFKSMVMKVRRQINLERQKNRMERRRRKQLPVKPQSLVGKAGDPPKRTKAKKE”, the “soluble on expression in E. coli” value was “soluble”. For “GPGSMTLYSIYIFNRYGDNIFYKEWNRTTAPQEGEAGLVAGFIYTLQHFSSQLSSSGEGGFYAVRTPLYKLHYNETMTGYRVALLSDKDLKTDVVQNILRKMFSDVFQRYVTKDPNYSHTQGRVITSTAFGEALDQFFHSQKIL”, the “soluble on expression in E. coli” value was “not soluble”. In the case of “GPGSMTNPSNSNLQALREELCTPGLDQGHLFEGWPETVDECNERQIALLTDLYMFSNMYPGGVAQYIRNGHELLARESEEVDFAALEMPPLIFEAPSLHRRTAERTALENAGTAMLCKTVFVLVAGGLGERLGYSSIKVSLPVETATNTTYLAYYLRWAQRVGGKEVPFVIMTSDDTHDRTLQLLRELQLEVPNLHVLKQGQVFCFADSAAHLALDETGKLLRKPHGHGDVHSLIYNATVKRDVVPDSGDGTATAQPLVNDWLAAGYESIVFIQDTNAGATITIPISLALSAEHSLDMNFTCIPRVPKEPIGLLCRTKKNSGDPWLVANVEYNVFAEVSRALNKDGGDEVSDPTGFSPFPGSVNTLVFKLSSYVDRLRESHGIVPEFINPKYSDETRRSFKKPARIESLMQDIALLFSEDDYRVGGTVFERFSYQPVKNSLEEAAGLVAQGNGAYCAATGEAAFYELQRRRLKAIGLPLFYSSQPEVTVAKDAFGVRLFPIIVLDTMCASSGSLDDLARVFPTPEKVHIDQHSTLIVEGRVIIESLELYGALTIRGPTDSMALPHVVRNAVVRNAGWSVHAILSLCAGRDSRLSEVDRIRGFVLKKTAMAVMDCNTKGESEAGAPSGAADPAKL”, the “soluble on expression in E. coli” value is reported as “soluble”. For “GPGSMTYRYDYRPPNGGVEGSTVLFEPVAREHRATFSCGGGYGRNVMPEIPRPMVLPLVDYLDSFDKRFIEDWDEITTVQMVKLATLLNYEELLNLASAKLAVYLSEKSIEGLRAFLGVENDFKAEEEAELRKEYGRMSEEK”, the “soluble on expression in E. coli” value was “soluble”.
